For one assay, the target named is human PD1-Fc (human, UniProt Q15116). The experiment in a line: BLI, bivalent.
Another assay concerns the target T1, human PD-L2-HIS (human, UniProt Q9BQ51).
T1 chain: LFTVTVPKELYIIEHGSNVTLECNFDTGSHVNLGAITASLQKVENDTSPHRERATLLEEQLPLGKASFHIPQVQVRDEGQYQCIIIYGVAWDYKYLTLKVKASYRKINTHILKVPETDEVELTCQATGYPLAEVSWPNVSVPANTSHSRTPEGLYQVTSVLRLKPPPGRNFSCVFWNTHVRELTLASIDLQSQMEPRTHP
The experiment in a line: BLI, monovalent. In general terms: In BLI a coated tip is dipped into the sample, and binding shifts an interference pattern.

Assay [1] addresses T2, human PD-L2-Fc (human, UniProt Q9BQ51).
T2 chain: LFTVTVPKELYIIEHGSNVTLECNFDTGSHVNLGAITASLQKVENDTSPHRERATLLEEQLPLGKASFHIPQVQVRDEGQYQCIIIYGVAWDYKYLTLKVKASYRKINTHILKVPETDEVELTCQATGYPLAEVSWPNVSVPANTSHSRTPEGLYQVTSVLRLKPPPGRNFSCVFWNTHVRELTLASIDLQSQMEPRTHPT
The assay can be described thus: BLI, bivalent.

The target in a further assay is T3, mouse PD-L2-Fc (mouse, UniProt Q9WUL5).
T3 chain: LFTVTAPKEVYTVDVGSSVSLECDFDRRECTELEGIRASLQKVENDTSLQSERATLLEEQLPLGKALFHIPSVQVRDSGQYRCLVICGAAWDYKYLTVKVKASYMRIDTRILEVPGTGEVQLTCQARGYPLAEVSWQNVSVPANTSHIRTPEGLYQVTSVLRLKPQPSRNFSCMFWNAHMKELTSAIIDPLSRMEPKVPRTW
The experiment in a line: BLI, bivalent.

In assay [2] the target is human PD-L1-Fc (human). The experiment in a line: BLI, bivalent.
Assay [3] addresses T2, human PD-L2-Fc. The assay can be described thus: BLI, monovalent.
In assay [4] the target is T4, mouse PD-L1-Fc (mouse, UniProt Q9EP73). The assay can be described thus: BLI, bivalent.
Assay [5] concerns the target T4, mouse PD-L1-Fc. The assay can be described thus: BLI, bivalent. The source holds these as a separate data set.
The target in assay [6] is human PD-L1-Fc (human). The experiment in a line: BLI.

This note sets out measurements from patent US20210198360 (published 2021).

human PD1-Fc, sequence (Q15116 25-170): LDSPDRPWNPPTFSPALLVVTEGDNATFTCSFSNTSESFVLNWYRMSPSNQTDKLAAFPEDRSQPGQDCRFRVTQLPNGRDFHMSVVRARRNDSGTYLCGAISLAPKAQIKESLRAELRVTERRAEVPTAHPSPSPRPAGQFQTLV
T4 sequence (Q9EP73 19-239): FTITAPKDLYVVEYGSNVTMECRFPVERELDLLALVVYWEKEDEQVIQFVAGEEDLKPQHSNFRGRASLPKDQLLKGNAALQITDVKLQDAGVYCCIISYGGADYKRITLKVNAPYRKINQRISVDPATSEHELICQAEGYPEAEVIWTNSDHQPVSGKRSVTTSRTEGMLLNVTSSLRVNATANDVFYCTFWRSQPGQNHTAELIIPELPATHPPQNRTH
human PD-L1-Fc (human), sequence (chain, as listed by the source): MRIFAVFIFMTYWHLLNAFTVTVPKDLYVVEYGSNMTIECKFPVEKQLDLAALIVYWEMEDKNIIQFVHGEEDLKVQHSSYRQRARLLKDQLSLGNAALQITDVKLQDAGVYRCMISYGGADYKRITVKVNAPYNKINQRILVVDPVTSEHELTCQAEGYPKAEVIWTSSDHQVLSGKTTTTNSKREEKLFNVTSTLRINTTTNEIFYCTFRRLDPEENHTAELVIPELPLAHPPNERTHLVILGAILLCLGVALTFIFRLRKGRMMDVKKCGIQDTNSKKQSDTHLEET

B1: ADI-20803 (antibody, V domains shown)
VH: QVQLVQSGAEVKKPGSSVKVSCKASGGTFRLYAISWVRQAPGQGLEWMGSIIPGFGSANYAQKFQGRVTITADESTSTAYMELSSLRSEDTAVYYCARDGGGGTSAYSFDPWGQGTLVTVSS
VL: EIVLTQSPATLSLSPGERATLSCRASQSVSSYLAWYQQKPGQAPRLLIYDASNRATGIPARFSGSGSGTDFTLTISSLEPEDFAVYYCQQSINFPYTFGGGTKVEIK
Take B1: the binding result in the assay with human PD1-Fc, with human PD-L2-HIS, in the assay with human PD-L2-Fc [1] and with mouse PD-L2-Fc was “no binding” throughout. Also, the Kd with human PD-L1-Fc [2] was 0.188 nM.

B2: ADI-20803 Fab (antibody, V domains shown)
VH: QVQLVQSGAEVKKPGSSVKVSCKASGGTFRLYAISWVRQAPGQGLEWMGSIIPGFGSANYAQKFQGRVTITADESTSTAYMELSSLRSEDTAVYYCARDGGGGTSAYSFDPWGQGTLVTVSS
VL: EIVLTQSPATLSLSPGERATLSCRASQSVSSYLAWYQQKPGQAPRLLIYDASNRATGIPARFSGSGSGTDFTLTISSLEPEDFAVYYCQQSINFPYTFGGGTKVEIK
Take B2: in the assay with human PD-L2-Fc [3], the binding result is “no binding”.

B3: ADI-16403 (antibody, V domains shown)
VH: EVQLVESGGGLVQPGGSLRLSCAASGFTFSSYWMSWVRQAPGKGLEWVANIKSDGSEKYYVDSVKGRFTISRDNAKNSLYLQMNSLRAEDTAVYYCARVTYWADYMDVWGKGTTVTVSS
VL: DIQMTQSPSTLSASVGDRVTITCRASQSISSWLAWYQQKPGKAPKLLIYKASSLESGVPSRFSGSGSGTEFTLTISSLQPDDFATYYCQQSGSLPPTFGGGTKVEIK
Regarding B3, the binding result with human PD1-Fc, with mouse PD-L1-Fc [4], with human PD-L2-Fc [1] and with mouse PD-L2-Fc was “no binding” each time.

B4: ADI-20227 (antibody, V domains shown)
VH: QVQLQESGPGLVKPSQTLSLTCTVSGGSIVSGGLYWSWIRQHPGKGLEWIGYIYYAGVTYYNPSLKSRVTISVDTSKNQFSLKLSSVTAADTAVYYCARGPRMGLAGMDVWGQGTTVTVSS
VL: DIQMTQSPSSVSASVGDRVTITCRASQGISSWLAWYQQKPGKAPKLLIYAASSLQSGVPSRFSGSGSGTDFTLTISSLQPEDFATYYCQQANSFPITFGGGTKVEIK
As to B4, the binding result with human PD1-Fc, with human PD-L2-HIS, with human PD-L2-Fc [1] and in the assay with mouse PD-L2-Fc was “no binding” in each case. The Kd with mouse PD-L1-Fc [5] worked out at 0.101 nM; with human PD-L1-Fc [6] it was 0.179 nM.

B5: ADI-20227 Fab (antibody, V domains shown)
VH: QVQLQESGPGLVKPSQTLSLTCTVSGGSIVSGGLYWSWIRQHPGKGLEWIGYIYYAGVTYYNPSLKSRVTISVDTSKNQFSLKLSSVTAADTAVYYCARGPRMGLAGMDVWGQGTTVTVSS
VL: DIQMTQSPSSVSASVGDRVTITCRASQGISSWLAWYQQKPGKAPKLLIYAASSLQSGVPSRFSGSGSGTDFTLTISSLQPEDFATYYCQQANSFPITFGGGTKVEIK
As for B5, in the assay with human PD-L2-Fc [3], the binding result was “no binding”.
